This assay addresses Full-length human KLHL41 GST fusion protein (human) (UniProt O60662). As to the kind of experiment: AlphaScreen or HTRF.
Chain of UniProt O60662 (O60662 whole entry, the tested form may be a part): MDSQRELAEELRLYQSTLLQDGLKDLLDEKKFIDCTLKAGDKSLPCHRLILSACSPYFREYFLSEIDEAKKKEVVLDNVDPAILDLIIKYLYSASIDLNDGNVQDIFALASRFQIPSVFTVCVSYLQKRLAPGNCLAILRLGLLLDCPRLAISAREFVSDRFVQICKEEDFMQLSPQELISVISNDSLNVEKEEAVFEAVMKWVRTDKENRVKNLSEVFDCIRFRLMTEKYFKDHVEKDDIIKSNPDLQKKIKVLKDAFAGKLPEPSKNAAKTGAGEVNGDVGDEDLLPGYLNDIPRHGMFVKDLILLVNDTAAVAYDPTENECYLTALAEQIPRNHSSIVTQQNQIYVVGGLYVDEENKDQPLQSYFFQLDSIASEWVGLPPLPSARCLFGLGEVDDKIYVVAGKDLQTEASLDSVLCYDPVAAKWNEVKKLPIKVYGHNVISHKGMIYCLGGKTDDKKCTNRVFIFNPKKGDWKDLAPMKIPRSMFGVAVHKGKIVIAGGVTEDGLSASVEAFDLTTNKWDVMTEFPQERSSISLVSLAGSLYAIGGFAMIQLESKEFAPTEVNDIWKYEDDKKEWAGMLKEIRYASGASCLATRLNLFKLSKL

Regarding “Human NEB (aa 5647-5849) MBP-HA fusion protein (from UniProt P20929 5647-5849) (domain or fragment)”, the delta F% (HTRF, 10nM KLHL41 and 100nM NEB) was 950%.

Source of the values: doi:10.1101/487454.
